Results taken from US20190119389A1 (POTENZA THERAPEUTICS, published 2019).

What was measured:
Mouse NRP-1 His = target: T1, Mouse NRP-1 His (mouse, UniProt P97333 22-856); assay: BLI Octet QKe, IgG4 S228P on AHC sensor, multi-concentration monomeric antigen, global 1:1 fit
T1 construct: Recombinant monomeric protein; also called mNRP-1; not shown: His tag

Cyno NRP-1 His = target: T2, Cyno NRP-1 His (cynomolgus monkey, UniProt O14786 22-856 (human entry), limits assumed); assay: as above
T2 construct: Recombinant monomeric protein; also called cynomolgus monkey NRP-1-His; cNRP-1; not shown: His tag
T2 chain: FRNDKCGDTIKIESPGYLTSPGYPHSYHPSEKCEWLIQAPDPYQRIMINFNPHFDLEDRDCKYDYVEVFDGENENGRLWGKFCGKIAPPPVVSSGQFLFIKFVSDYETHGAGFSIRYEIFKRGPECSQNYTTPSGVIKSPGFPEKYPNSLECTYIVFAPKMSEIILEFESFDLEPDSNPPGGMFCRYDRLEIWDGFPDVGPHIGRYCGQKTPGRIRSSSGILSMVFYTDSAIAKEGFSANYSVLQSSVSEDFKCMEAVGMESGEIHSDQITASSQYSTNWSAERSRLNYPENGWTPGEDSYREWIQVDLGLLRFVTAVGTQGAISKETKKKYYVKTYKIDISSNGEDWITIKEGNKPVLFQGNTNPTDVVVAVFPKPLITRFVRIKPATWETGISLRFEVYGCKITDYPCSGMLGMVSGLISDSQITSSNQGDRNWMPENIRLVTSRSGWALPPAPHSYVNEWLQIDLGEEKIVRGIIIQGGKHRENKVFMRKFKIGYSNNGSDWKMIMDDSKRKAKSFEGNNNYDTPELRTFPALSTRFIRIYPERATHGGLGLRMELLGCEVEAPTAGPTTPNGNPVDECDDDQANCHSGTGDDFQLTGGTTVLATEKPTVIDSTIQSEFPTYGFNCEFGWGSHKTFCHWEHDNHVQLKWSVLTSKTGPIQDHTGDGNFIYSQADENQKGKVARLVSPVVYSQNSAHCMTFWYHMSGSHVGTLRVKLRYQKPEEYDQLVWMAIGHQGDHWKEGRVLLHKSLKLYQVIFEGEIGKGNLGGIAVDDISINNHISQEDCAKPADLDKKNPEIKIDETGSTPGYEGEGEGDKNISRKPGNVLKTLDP

Human NRP-1 His = target: T3, Human NRP-1 His (human, UniProt O14786 22-856); assay: as above
T3 construct: Recombinant monomeric protein; Biotinylated in the MSD-SET assay; also called hNRP-1; not shown: His tag
T3 sequence (O14786 22-856 V179A limits assumed): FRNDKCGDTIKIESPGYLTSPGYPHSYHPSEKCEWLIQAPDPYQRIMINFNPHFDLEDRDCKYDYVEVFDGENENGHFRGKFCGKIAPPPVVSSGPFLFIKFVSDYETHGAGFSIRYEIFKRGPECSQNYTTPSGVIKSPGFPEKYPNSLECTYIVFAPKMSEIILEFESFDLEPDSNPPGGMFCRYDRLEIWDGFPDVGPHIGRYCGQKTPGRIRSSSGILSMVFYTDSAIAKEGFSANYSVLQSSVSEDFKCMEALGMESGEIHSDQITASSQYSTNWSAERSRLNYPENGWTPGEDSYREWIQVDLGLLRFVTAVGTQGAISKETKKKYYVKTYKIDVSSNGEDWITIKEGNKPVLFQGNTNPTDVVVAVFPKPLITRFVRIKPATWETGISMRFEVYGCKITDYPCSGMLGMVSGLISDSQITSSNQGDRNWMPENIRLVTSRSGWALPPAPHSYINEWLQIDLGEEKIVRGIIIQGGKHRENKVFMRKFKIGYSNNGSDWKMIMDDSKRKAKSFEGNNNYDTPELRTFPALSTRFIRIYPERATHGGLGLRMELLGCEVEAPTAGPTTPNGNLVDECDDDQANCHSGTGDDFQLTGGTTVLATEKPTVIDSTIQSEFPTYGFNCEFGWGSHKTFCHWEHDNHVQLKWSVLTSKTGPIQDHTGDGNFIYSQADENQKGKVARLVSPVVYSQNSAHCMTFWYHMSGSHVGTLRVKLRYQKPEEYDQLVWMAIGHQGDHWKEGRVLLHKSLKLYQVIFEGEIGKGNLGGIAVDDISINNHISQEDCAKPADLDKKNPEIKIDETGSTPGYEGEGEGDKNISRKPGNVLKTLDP

recombinant human NRP-1 [1] = target: T4, recombinant human NRP-1 (human, UniProt O14786 22-856, limits assumed); assay: blocking ELISA, average of n=2: SEMA3A coated, biotinylated human NRP-1 preincubated with IgG4 antibody; competitor SEMA3A
T4 construct: also called biotinylated human NRP-1
Target sequence in this assay (O14786 22-856 V179A limits assumed): as above

recombinant human NRP-1 [2] = target: T4, recombinant human NRP-1; assay: blocking ELISA, average of n=2: human NRP-1 coated, VEGFA added with IgG4 antibody; competitor VEGFA
[3] = target: T5, Recombinant human NRP-1-Fc fusion protein, a2b1b2 domains (human, UniProt O14786 147-583, limits assumed); assay: BLI Octet QKe, antibody on AHC sensor, NRP-1-Fc fragment 500 nM
T5 construct: Only the named domains of hNRP-1 are in the construct; not shown: Fc
T5 sequence (O14786 147-583 V179A limits assumed): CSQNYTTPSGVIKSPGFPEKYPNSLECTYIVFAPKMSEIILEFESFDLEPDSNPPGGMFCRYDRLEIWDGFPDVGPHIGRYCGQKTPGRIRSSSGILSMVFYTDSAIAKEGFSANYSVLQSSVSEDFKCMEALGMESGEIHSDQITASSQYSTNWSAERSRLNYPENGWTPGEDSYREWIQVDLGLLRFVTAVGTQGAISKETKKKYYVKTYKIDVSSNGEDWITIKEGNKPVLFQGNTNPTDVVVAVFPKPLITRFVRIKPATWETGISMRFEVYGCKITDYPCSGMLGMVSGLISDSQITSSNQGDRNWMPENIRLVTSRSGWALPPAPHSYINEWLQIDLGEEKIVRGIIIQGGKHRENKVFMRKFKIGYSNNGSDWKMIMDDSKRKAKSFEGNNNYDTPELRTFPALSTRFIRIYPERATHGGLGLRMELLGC

[4] = target: T6, Recombinant human NRP-1-Fc fusion protein, a1a2b1b2 domains (human, UniProt O14786 22-583, limits assumed); assay: as above
T6 construct: Only the named domains of hNRP-1 are in the construct; not shown: Fc

[5] = target: T7, Recombinant human NRP-1-Fc fusion protein, a1a2b1 domains (human, UniProt O14786 22-424, limits assumed); assay: as above
T7 construct: Only the named domains of hNRP-1 are in the construct; not shown: Fc

T1 sequence (P97333 22-856 limits assumed): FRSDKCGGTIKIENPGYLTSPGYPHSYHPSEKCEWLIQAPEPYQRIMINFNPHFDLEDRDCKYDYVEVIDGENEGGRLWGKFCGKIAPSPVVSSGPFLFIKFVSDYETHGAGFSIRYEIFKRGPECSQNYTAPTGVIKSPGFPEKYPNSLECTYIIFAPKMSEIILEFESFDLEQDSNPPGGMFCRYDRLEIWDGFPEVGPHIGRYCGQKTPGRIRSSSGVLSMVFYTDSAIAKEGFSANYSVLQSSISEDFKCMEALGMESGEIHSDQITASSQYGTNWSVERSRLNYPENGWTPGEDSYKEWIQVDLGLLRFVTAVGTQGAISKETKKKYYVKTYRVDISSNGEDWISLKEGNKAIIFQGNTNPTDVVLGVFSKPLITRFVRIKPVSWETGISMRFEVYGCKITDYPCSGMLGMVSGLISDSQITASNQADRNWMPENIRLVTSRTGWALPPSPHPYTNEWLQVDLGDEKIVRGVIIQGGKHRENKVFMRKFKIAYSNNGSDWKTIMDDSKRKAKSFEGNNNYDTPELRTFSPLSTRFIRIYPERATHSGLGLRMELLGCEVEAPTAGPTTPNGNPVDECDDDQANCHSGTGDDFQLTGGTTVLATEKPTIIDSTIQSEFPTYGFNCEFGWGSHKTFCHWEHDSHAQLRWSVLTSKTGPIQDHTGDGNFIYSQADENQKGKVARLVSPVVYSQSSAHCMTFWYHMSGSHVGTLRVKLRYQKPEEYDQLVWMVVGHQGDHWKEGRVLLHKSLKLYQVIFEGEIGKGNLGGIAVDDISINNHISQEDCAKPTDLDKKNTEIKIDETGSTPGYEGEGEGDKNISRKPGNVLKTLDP

B1: MAB5 IgG4 S228P (antibody, V domains shown)
VH: QVQLVQSGAEVKKPGASVKVSCKASGYTFTSYYMHWVRQAPGQGLEWMGIINPQGGDTSYAQKFQGRVTMTRDTSTSTVYMELSSLRSEDTAVYYCARDRGMYYASGFGPWGQGTLVTVSS
VL: EIVMTQSPGTLSLSPGERATLSCRASQSVSSSYLAWYQQKPGQAPRLLIYGASNRATGIPDRFSGSGSGTDFTLTISRLEPEDFAVYYCQQLSSFPITFGGGTKVEIKR
Mouse NRP-1 His
  Kd: 6.6 nM
Cyno NRP-1 His
  Kd: 12 nM
Human NRP-1 His
  Kd: 8.4 nM
Recombinant human NRP-1 [1]
  IC50: 2.9 nM

B2: MAB12 IgG4 S228P (antibody, V domains shown)
VH: EVQLLESGGGLVQPGGSLRLSCAASGFTFSSVAMVWVRQAPGKGLEWVSAISGSGGATYYADSVEGRFTISRDNSKNTLYLQMNSLRAEDTAVYYCAKDPGYDSSRYYYSNYGMDVWGQGTTVTVSS
VL: DIQMTQSPSSLSASVGDRVTITCRASQSISSYLNWYQQKPGKAPKLLIYGASSLQSGVPSRFSGSGSGTDFTLTISSLQPEDFATYYCQQTYSLYTFGGGTKVEIKR
Mouse NRP-1 His
  Kd: 0.16 nM
Cyno NRP-1 His
  Kd: 0.19 nM
Human NRP-1 His
  Kd: 0.12 nM
Recombinant human NRP-1 [1]
  IC50: 1.2 nM
Recombinant human NRP-1 [2]
  IC50: 3.2 nM

B3: MAB13 IgG4 S228P (antibody, V domains shown)
VH: QVQLQQWGAGLLKPSETLSLTCAVYGGSFRGYYWEWIRQPPGKGLEWIGEISHSGSTNYNPSLKSRVTISVDTSKNQFSLKLSSVTAADTAVYYCARARPYREPYGMDVWGQGTTVTVSS
VL: DIQLTQSPSSVSASVGDRVTITCRASQDISSWLAWYQQKPGKAPKLLIYAASSLQSGVPSRFSGSGSGTDFTLTISSLQPEDFATYYCQQELAFPRTFGGGTKVEIKR
Mouse NRP-1 His
  Kd: 3.7 nM
Cyno NRP-1 His
  Kd: 0.94 nM
Human NRP-1 His
  Kd: 0.96 nM
Recombinant human NRP-1 [1]
  IC50: 0.9 nM
Recombinant human NRP-1 [2]
  IC50: 2.9 nM

B4: MAB14 IgG4 S228P (antibody, V domains shown)
VH: QVQLQQWGAGLLKPSETLSLTCAVYGGSFRGYYWEWSRQPPGKGLEWIGEISHSGSTNYNPSLKSRVTISVDTSKNQFSLKLSPVTAADTAVYYCARARPYREPYGMDVWGQGTTVTVSS
VL: DIQLTQSPSSVSASVGDRVTITCRASQDISSWLAWYQQKPGKAPKLLIYAASSLQSGVPSRFSGSGSGTDFTLTISSLQPEDFATYYCQQELAFPRTFGGGTKVEIKR
Mouse NRP-1 His
  Kd: 2.7 nM
Cyno NRP-1 His
  Kd: 0.74 nM
Human NRP-1 His
  Kd: 0.87 nM
Recombinant human NRP-1 [1]
  IC50: 0.6 nM
Recombinant human NRP-1 [2]
  IC50: 2.5 nM

B5: anti-NRP Antibody SEC10 (antibody, human IgG1, kappa, V domains shown)
VH: EVQLVESGGGLVQPGGSLRLSCAASGFTFSSYAMSWVRQAPGKGLEWVSQISPAGGYTNYADSVKGRFTISADTSKNTAYLQMNSLRAEDTAVYYCARGELPYYRMSKVMDVWGQGTLVTVSS
VL: DIQMTQSPSSLSASVGDRVTITCRASQYFSSYLAWYQQKPGKAPKLLIYGASSRASGVPSRFSGSGSGTDFTLTISSLQPEDFATYYCQQYLGSPPTFGQGTKVEIKR
[3]
  binding result: binds
[4]
  binding result: binds

B6: SEC3 (antibody, human IgG1, kappa, V domains shown)
VH: EVQLVESGGGLVQPGGSLRLSCAASGFTISGYGIHWVRQAPGKGLEWVAYIYPDSGYTDYADSVKGRFTISADTSKNTAYLQMNSLRAEDTAVYYCAREDFRNRRRLWYVMDYWGQGTLVTVSS
VL: DIQMTQSPSSLSASVGDRVTITCRASQDVSTAVAWYQQKPGKAPKLLIYSASFLYSGVPSRFSGSGSGTDFTLTISSLQPEDFATYYCQQAWAYLPTFGQGTKVEIKR
notes: Appendix A gives 144 as light chain and 145 as heavy chain; also called pan-anti-NRP-1 antibody
[4]
  binding result: binds
[5]
  binding result: binds
